According to publication PMC9374335, “C11orf94/Frey is a key regulator for male fertility by controlling Izumo1 complex assembly” (Science Advances, 2022):

Target: T1, Izumo1-3xFLAG (mouse, UniProt Q9D9J7 22-397)
T1 construct: Izumo sperm-egg fusion protein 1, mouse; open reading frame amplified from murine testis cDNA; source: HEK293T, transfected, in lysate (CHAPSO); not shown: 3xFLAG, C-terminal, kept
T1 sequence (looked up): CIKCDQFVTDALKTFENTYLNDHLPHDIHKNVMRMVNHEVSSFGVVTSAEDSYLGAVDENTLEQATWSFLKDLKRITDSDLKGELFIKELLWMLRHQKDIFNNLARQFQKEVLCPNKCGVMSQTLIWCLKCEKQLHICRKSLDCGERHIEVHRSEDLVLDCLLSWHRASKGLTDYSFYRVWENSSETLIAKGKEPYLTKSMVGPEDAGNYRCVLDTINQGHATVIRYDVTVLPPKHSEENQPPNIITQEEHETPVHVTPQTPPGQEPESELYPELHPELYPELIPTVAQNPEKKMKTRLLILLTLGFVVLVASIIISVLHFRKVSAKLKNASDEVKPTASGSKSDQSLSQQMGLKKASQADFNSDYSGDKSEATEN
Test: co-IP; CHAPSO lysates of transfected HEK293T cells; 3xFLAG-tagged bait precipitated with anti-FLAG beads; with or without coexpressed C11orf94-3xmyc; Western blot
Details: partners not purified

B1: murine ACE3 equipped with a C-terminal HA-tag (natural protein, mouse, UniProt D0G895 24-737, looked up)
chain: VGETSLNDFYSEAQAKLFLQFYEQTAQVVLNEFMEATWNYVTNITKQNQKNMLQKEADRSQFMLYFSTRARMFRTDHFLNQDVKRMLRKLQNIDKSALPTEDLLEYNRLLTYMETAYNRAEVCLDEGPCLTLEPDLQEIMATSRDQKELLWAWQGWRDAVGRQLRPVFEDYVRLSNKAAQYNGYKDMGALWRSKYESDTLEEDLEQLYKELQPLYLNLHAYVRRSLYRYYGPELIDLRGPIPAHLLGNMWAQSWNNILDLVLPYPTKAPEDITAIMKIQHWRPEKMFEEANLFFTSMGMLPAPPAFWIKSMMEKPADGREVECHTSSWNFYKFNDFRVKKCTEVTLEDLLSVFHQMGHIQYFLQYQNLSVIYQEGASPAFEEAVGSVIALSVSSHKYLLARGLLSQPHQDSEEEVNFLLGIALEKIAFIPFSYLVDKFRWKIFDGTISKITYNQEWWNFRLKYQGLCPPVPRSDDDFDPGAKFHIPANVPYIRYFLGLILQFQLHEALCEASGHVGPLHQCDNYNSKVAGKILGDLLKLGSSRPWREVLQEVTGESNISTKAFLTYFKPLMDWLVTENVKQGDTLGWPDFSCSFEEKITSKVSFLGTDTEPEQAYLGQWVLLSMSFFMLVLILALGFRLHYLEKQLLDEDTMILKTLPYSYFLGIAMEPHQAARKQWLLLGLCCILMLCCIGLLIRIVTQNTENTPWMKNEGQS
notes: Angiotensin-converting enzyme 3 (ACE3), mouse; open reading frame amplified from murine testis cDNA; also called ACE3-HA; angiotensin-converting enzyme 3; source: HEK293T, transiently transfected, in lysate (CHAPSO); not shown: HA, C-terminal, kept
fold change of the co-precipitation in the presence of C11orf94-3xmyc against its absence: ~1.7 fold
